Measured values reported in the supplement of paper PMC9233669.
Fewer inactive variants are shown than the library holds.

Experiments:
biotinyl-Trp-oxazolone = assay: self-aminoacylation, catalytic enhancement (BWO) (fold over background); higher = more active; k-Seq, kA / k0A0; sequences stand for … in GGGAAUGGAUCCACAUCUACGAAUUC…UUCACUGCAGACUUGACGAAGCUG
Method in brief: (§1)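 Mutagenized RNA pools (0.43 μM; 21-nt variable region) were treated with 2–1250 μM of each biotinyl-aminoacyl-oxazolone. Conditions were 50 μL HEPES/NaCl/KCl/MgCl2/CaCl2 buffer, 5% acetonitrile, pH 6.9–7.0, room temperature, 90 minutes. Catalytic enhancement, the median kA relative to the uncatalyzed rate, was derived from streptavidin capture, qPCR and Illumina sequencing.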

biotinyl-Val-oxazolone = assay: self-aminoacylation, catalytic enhancement (BVO) (fold over background); higher = more active; k-Seq, kA / k0A0; sequences stand for … in GGGAAUGGAUCCACAUCUACGAAUUC…UUCACUGCAGACUUGACGAAGCUG
Method in brief: as §1

biotinyl-Ile-oxazolone = assay: self-aminoacylation, catalytic enhancement (BIO) (fold over background); higher = more active; k-Seq, kA / k0A0; sequences stand for … in GGGAAUGGAUCCACAUCUACGAAUUC…UUCACUGCAGACUUGACGAAGCUG
Method in brief: as §1

biotinyl-Met-oxazolone = assay: self-aminoacylation, catalytic enhancement (BMO) (fold over background); higher = more active; k-Seq, kA / k0A0; sequences stand for … in GGGAAUGGAUCCACAUCUACGAAUUC…UUCACUGCAGACUUGACGAAGCUG
Method in brief: as §1

biotinyl-Phe-oxazolone = assay: self-aminoacylation, catalytic enhancement (BFO) (fold over background); higher = more active; k-Seq, kA / k0A0; sequences stand for … in GGGAAUGGAUCCACAUCUACGAAUUC…UUCACUGCAGACUUGACGAAGCUG
Method in brief: as §1

biotinyl-Leu-oxazolone = assay: self-aminoacylation, catalytic enhancement (BLO) (fold over background); higher = more active; k-Seq, kA / k0A0; sequences stand for … in GGGAAUGGAUCCACAUCUACGAAUUC…UUCACUGCAGACUUGACGAAGCUG
Method in brief: as §1

Row | Sequence | self-aminoacylation (biotinyl-Trp-oxazolone) | self-aminoacylation (biotinyl-Val-oxazolone) | self-aminoacylation (biotinyl-Ile-oxazolone) | self-aminoacylation (biotinyl-Met-oxazolone) | self-aminoacylation (biotinyl-Phe-oxazolone) | self-aminoacylation (biotinyl-Leu-oxazolone)
1 | AAGUUUGCUGGUAGUCGCAAG [Fam3.1 aminoacylation ribozyme variant] | 0.864 | 0.86 | 0.97 | 0.778 | 1.12 | 0.96
2 | AAGUUUGCUUAUAGUGGCAAG [Fam3.1 aminoacylation ribozyme variant] | 0.94 | 0.711 | 0.789 | 0.861 | 1.38 | 0.644
3 | AAGUUUGCUUAUGGUCGCAAG [Fam3.1 aminoacylation ribozyme variant] | 0.782 | 0.727 | 0.54 | 0.728 | 0.863 | 0.603
4 | AAGUUUGCUUCUAGUCGCAAG [Fam3.1 aminoacylation ribozyme variant] | 1.11 | 1.23 | 1.39 | 0.998 | 1.54 | 1.2
5 | AAGUUUGGUAAGAGUCGCAAG [Fam3.1 aminoacylation ribozyme variant] | 1.31 | 1.3 | 1.58 | 1.3 | 1.7 | 1.43
6 | AAGUUUGGUAAUAGUCACAAG [Fam3.1 aminoacylation ribozyme variant] | 0.739 | 1.07 | 1.04 | 1.01 | 1.51 | 0.902
7 | AAGUUUGGUAAUAGUCCCAAG [Fam3.1 aminoacylation ribozyme variant] | 1.04 | 0.864 | 1.32 | 1.05 | 1.39 | 0.963
8 | AAGUUUGGUAAUAGUCGCUAG [Fam3.1 aminoacylation ribozyme variant] | 1.47 | 0.958 | 1.18 | 1.05 | 1.64 | 0.996
9 | AAGUUUGUUAAUAAUCGCAAG [Fam3.1 aminoacylation ribozyme variant] | 0.883 | 0.842 | 0.928 | 0.824 | 1.05 | 0.995
10 | AAGUUUGUUAAUACUCGCAAG [Fam3.1 aminoacylation ribozyme variant] | 0.7 | 0.81 | 0.893 | 0.692 | 1.07 | 0.76
11 | AAGUUUGUUAAUAGUCGCAAA [Fam3.1 aminoacylation ribozyme variant] | 1.43 | 1.32 | 1.8 | 1.63 | 2.15 | 1.68
12 | AAGUUUGUUAAUAGUCGCAAU [Fam3.1 aminoacylation ribozyme variant] | 1.94 | 1.45 | 1.73 | 1.5 | 2.29 | 1.51
13 | AAGUUUGUUAAUAGUCUCAAG [Fam3.1 aminoacylation ribozyme variant] | 1.23 | 1.15 | 1.22 | 1.23 | 1.62 | 1.02
14 | AAGUUUUCGAAUAGUCGCAAG [Fam3.1 aminoacylation ribozyme variant] | 2.24 | 1.81 | 2.14 | 1.82 | 3.28 | 1.86
15 | AAGUUUUCUAAUAGUCGCAAG [Fam3.1 aminoacylation ribozyme variant] | 1.58 | 1.31 | 1.51 | 1.23 | 2.64 | 1.32
16 | AAGUUUUCUAAUAGUCGCAGG [Fam3.1 aminoacylation ribozyme variant] | 2.19 | 1.52 | 1.59 | 1.6 | 3.74 | 1.55
17 | AAGUUUUCUAAUAGUCGCCAG [Fam3.1 aminoacylation ribozyme variant] | 1.91 | 1.32 | 1.78 | 1.54 | 2.81 | 1.15
18 | AAGUUUUCUAAUAGUCGCGAG [Fam3.1 aminoacylation ribozyme variant] | 2.99 | 1.71 | 2.02 | 1.84 | 5.94 | 1.88
19 | AAUACCCCGGUCAUCGAGUGA [Fam2.1 aminoacylation ribozyme variant] | 5.61 | 3.57 | 3.15 | 4.63 | 27.9 | 5.27
20 | AAUACCCUAGUCAUCGAGUGA [Fam2.1 aminoacylation ribozyme variant] | 5.18 | 2.64 | 2.46 | 4.24 | 15.4 | 4.49
21 | AAUACCCUGCUCAUCGAGUGA [Fam2.1 aminoacylation ribozyme variant] | 1.17 | 1.3 | 1.08 | 1.22 | 1.69 | 1.6
22 | AAUACCCUGGUCAUCGAGCGA [Fam2.1 aminoacylation ribozyme variant] | 2.75 | 1.66 | 1.65 | 2.03 | 1.56 | 1.55

Row | Sequence | self-aminoacylation (biotinyl-Trp-oxazolone) | self-aminoacylation (biotinyl-Val-oxazolone) | self-aminoacylation (biotinyl-Ile-oxazolone) | self-aminoacylation (biotinyl-Met-oxazolone) | self-aminoacylation (biotinyl-Phe-oxazolone) | self-aminoacylation (biotinyl-Leu-oxazolone)
23 | AAUACCCUGGUCAUUGAGUGA [Fam2.1 aminoacylation ribozyme variant] | 6.33 | 2.9 | 2.98 | 5.79 | 17.1 | 5.25
24 | AAUCAACUAGGUCAUCGGGUG [Fam2.2 aminoacylation ribozyme variant] | 6.47 | 4.4 | 4.49 | 5.89 | 39.7 | 6.32
25 | AAUCACCCAGGUCAUCGGGUG [Fam2.2 aminoacylation ribozyme variant] | 6.23 | 4.93 | 4.58 | 4.82 | 27.9 | 3.76
26 | AAUCACCUAAGUCAUCGGGUG [Fam2.2 aminoacylation ribozyme variant] | 7.91 | 4.44 | 4.89 | 6.3 | 44.5 | 7.68
27 | AAUCACCUAGGUCAACGGGUG [Fam2.2 aminoacylation ribozyme variant] | 3.32 | 2.77 | 2.29 | 2.91 | 10.3 | 3.39
28 | AAUCACCUAGGUCAUCCGGUG [Fam2.2 aminoacylation ribozyme variant] | 6.07 | 4.15 | 4.59 | 5.22 | 50 | 6.61
29 | AAUCACCUAGGUCAUCGGCUG [Fam2.2 aminoacylation ribozyme variant] | 2.68 | 2.34 | 2.3 | 3.21 | 10.9 | 2.14
30 | AAUCACCUAGGUCAUCGGGUC [Fam2.2 aminoacylation ribozyme variant] | 1.21 | 1.63 | 1.79 | 1.81 | 7.16 | 1.37
31 | AAUCACCUAGGUCAUCUGGUG [Fam2.2 aminoacylation ribozyme variant] | 2.52 | 1.67 | 1.96 | 2.08 | 11.2 | 2.27
32 | AAUCACCUAGGUCGUCGGGUG [Fam2.2 aminoacylation ribozyme variant] | 1.34 | 2.19 | 2.12 | 2.21 | 7.97 | 3.25
33 | AAUCACCUGGGUCAUCGGGUG [Fam2.2 aminoacylation ribozyme variant] | 7.63 | 6.36 | 4.12 | 4.32 | 31.9 | 4.47
34 | AAUCACUUAGGUCAUCGGGUG [Fam2.2 aminoacylation ribozyme variant] | 8.45 | 4.61 | 5.09 | 7.21 | 43 | 7.59
35 | AAUGCCCUGGUCAUCGAGUGA [Fam2.1 aminoacylation ribozyme variant] | 11.8 | 5.85 | 4.61 | 9.57 | 33.9 | 9.96
36 | AAUUACCUAGGUCAUCGGGUG [Fam2.2 aminoacylation ribozyme variant] | 7.49 | 4.24 | 4.3 | 6.04 | 38 | 6.53
37 | AAUUAUGCUAAUAGUCGCAAG [Fam3.1 aminoacylation ribozyme variant] | 2.57 | 1.65 | 2.21 | 1.46 | 3.25 | 1.81
38 | AAUUUUGCUAAUAGUCGCAGG [Fam3.1 aminoacylation ribozyme variant] | 2.05 | 1.83 | 1.89 | 1.76 | 2.65 | 1.98
39 | AAUUUUGCUAAUAGUCGGAAG [Fam3.1 aminoacylation ribozyme variant] | 1.2 | 1.03 | 1.23 | 1.13 | 3.1 | 1.22
40 | ACACACCUAGGUCAUCGGGUG [Fam2.2 aminoacylation ribozyme variant] | 4.91 | 3.19 | 2.98 | 3.51 | 19 | 3.61
41 | ACACACGUCAAGCAAUCGGUC [Fam1B.1 aminoacylation ribozyme variant] | 2.55 | 2.04 | 1.88 | 1.96 | 3.48 | 2.14
42 | ACACACUGCAAGCAAUCGGUC [Fam1B.1 aminoacylation ribozyme variant] | 1.73 | 1.33 | 1.43 | 1.23 | 1.36 | 1.48
43 | ACACACUUAAAGCAAUCGGUC [Fam1B.1 aminoacylation ribozyme variant] | 0.971 | 1.11 | 1.08 | 0.917 | 1.23 | 0.923
